The results in this text go back to patent US20210340217A1, “NOVEL PEPTIDES AND COMBINATION OF PEPTIDES FOR USE IN IMMUNOTHERAPY AGAINST OVARIAN CANCER AND OTHER CANCERS” (Immatics Biotechnologies GmbH, priority 2017, published 2021).

This experiment deals with HLA-B*44:02 (Homo sapiens, UniProt P01889, A223V/A65T/A93T/A95T/D201E/D98Y/E176V/E187L/E204Q/E69K/G107R/H137Y/K202T/L105A/L119I/N104T/N87E/Q56L/Q94N/R106L/R155S/R180D/S101N/S121R/S35A/S48T/T118I/V36M/W191S/Y140D/Y91S). The experiment in a line: MHC binding assay (UV-ligand exchange, beta2m ELISA). As to conditions: peptide exchange yield. The essentials:
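Peptide–MHC complexes formed by UV-induced exchange of a UV-cleavable peptide for the test peptide. Exchange yield measured by streptavidin-capture ELISA detecting β2m (HRP anti-β2m, TMB, A450) on 100-fold diluted samples. Quantified against refolded HLA-A*02:01/MLA-001 standards (15-500 ng/ml).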

Consider “207 (TEARATSDSW; listed as Homo sapiens) [compound 207]”, for which the Peptide exchange entry is ““+++” (>50 = +++)”.

As for “399 (RELLHLVTL; listed as Homo sapiens) [compound 399]”, the Peptide exchange result is ““+++” (>50 = +++)”.

As to “177 (TEVGTMNLF; listed as Homo sapiens) [compound 177]”, the Peptide exchange entry is on record as ““+++” (>50 = +++)”.

Consider “202 (HESEATASW; listed as Homo sapiens) [compound 202]”, for which the Peptide exchange result is ““+++” (>50 = +++)”.

Consider “435 (REEFVSIDHL; listed as Homo sapiens) [compound 435]”, for which the Peptide exchange result is listed as ““++” (>20% = ++)”.

For “427 (HESSSHHDL; listed as Homo sapiens) [compound 427]”, the Peptide exchange result is given as ““++” (>20% = ++)”.

“59 (SENVTMKVV; listed as Homo sapiens) [compound 59]”: the Peptide exchange entry is ““+++” (>50 = +++)”.

As to “213 (KESIPRWYY; listed as Homo sapiens) [compound 213]”, the Peptide exchange entry is given as ““++” (>20% = ++)”.

Consider “429 (REKFIASVI; listed as Homo sapiens) [compound 429]”, for which the Peptide exchange result is on record as ““++” (>20% = ++)”.

Consider “199 (REIDESLIFY; listed as Homo sapiens) [compound 199]”, for which the Peptide exchange result is reported as ““+++” (>50 = +++)”.

Take “179 (REAGDEFEL; listed as Homo sapiens) [compound 179]”: the Peptide exchange result is given as ““++” (>20% = ++)”.

In the case of “408 (LEKALQVF; listed as Homo sapiens) [compound 408]”, the Peptide exchange result was ““++” (>20% = ++)”.

Regarding “432 (EEQYIAQF; listed as Homo sapiens) [compound 432]”, the Peptide exchange entry was ““+” (>10% = +)”.

Take “412 (QEILTQVKQ; listed as Homo sapiens) [compound 412]”: the Peptide exchange entry is on record as ““++” (>20% = ++)”.

Take “431 (AEQDPDELNKA; listed as Homo sapiens) [compound 431]”: the Peptide exchange entry was ““++” (>20% = ++)”.

For “190 (YEVARILNL; listed as Homo sapiens) [compound 190]”, the Peptide exchange result is reported as ““++” (>20% = ++)”.

Consider “211 (EEKVFPSPLW; listed as Homo sapiens) [compound 211]”, for which the Peptide exchange entry is ““+++” (>50 = +++)”.

Turning to “173 (AEAQVGDERDY; listed as Homo sapiens) [compound 173]”, the Peptide exchange result is on record as ““+++” (>50 = +++)”.

On to “201 (AETILTFHAF; listed as Homo sapiens) [compound 201]”, for which the Peptide exchange result is reported as ““+++” (>50 = +++)”.

For “419 (HEFGHVLGL; listed as Homo sapiens) [compound 419]”, the Peptide exchange entry is listed as ““++” (>20% = ++)”.

As to “205 (SEITRIEM; listed as Homo sapiens) [compound 205]”, the Peptide exchange result is listed as ““++” (>20% = ++)”.

On to “181 (GEGPKTSW; listed as Homo sapiens) [compound 181]”, for which the Peptide exchange result is given as ““++” (>20% = ++)”.

As for “55 (HETETRTTW; listed as Homo sapiens) [compound 55]”, the Peptide exchange entry is ““+++” (>50 = +++)”.

Take “396 (REASGLLSL; listed as Homo sapiens) [compound 396]”: the Peptide exchange result was ““+++” (>50 = +++)”.

In the case of “410 (SEDPSKLEA; listed as Homo sapiens) [compound 410]”, the Peptide exchange entry is given as ““+” (>10% = +)”.

Turning to “187 (GEAQTRIAW; listed as Homo sapiens) [compound 187]”, the Peptide exchange result was ““+++” (>50 = +++)”.

As to “413 (IEALSGKIEL; listed as Homo sapiens) [compound 413]”, the Peptide exchange result is ““++” (>20% = ++)”.

Take “398 (SFEQVVNELF; listed as Homo sapiens) [compound 398]”: the Peptide exchange entry is ““++” (>20% = ++)”.

Take “185 (AERQPGAASL; listed as Homo sapiens) [compound 185]”: the Peptide exchange result was ““++” (>20% = ++)”.
